Source: patent US20170246255

Assays:
[1] = test system: T1, model peptide analog WALAPRXFA (X = tertiary leucine)
T1 sequence: WALAPRXFA

[2] = test system: T2, model thrombin substrate peptide WALAPRSFA
T2 sequence: WALAPRSFA

Question: Which “cleavage of the peptide by the enzyme, C18 reverse phase HPLC and mass spectra after 4 hours at 23° C. with 10 nM thrombin” value [1] does the source give for thrombin here?
Answer: The value was “the TLE substituted peptide analog was not cleaved by thrombin under these conditions”.

Question: What about the “cleavage of the peptide by the enzyme, C18 reverse phase HPLC and mass spectra after 4 hours at 23° C. with 10 nM thrombin” value [2] of the same substance?
Answer: Its value is “unmodified peptide was efficiently cleaved by thrombin to yield the cleavage product WALAPR”.
